Data published in PMC6135765, “Redox control and autoxidation of class 1, 2 and 3 phytoglobins from Arabidopsis thaliana” (Scientific Reports, 2018).

Molecular target: the molecule itself
Test: SEC; analytical size exclusion chromatography of the purified proteins, before and after His8-MBP removal; apparent native size in solution

Protein	stoichiometry N
His8-MBP:AtHb1 (Arabidopsis thaliana class 1 non-symbiotic hemoglobin / phytoglobin, before tag cleavage) (natural protein, UniProt O24520 1-160, looked up, AtHb1, class 1 non-symbiotic hemoglobin of Arabidopsis thaliana; Heme protein; Expressed from pVP16 (Gateway) with an N-terminal 8xHis:MBP double tag and a TEV site; also called His8-MBP-tagged AtHb1; 8xHis:MBP:Hb1; not shown: His8, N-terminal, kept; MBP, N-terminal, kept) MESEGKIVFTEEQEALVVKSWSVMKKNSAELGLKLFIKIFEIAPTTKKMFSFLRDSPIPAEQNPKLKPHAMSVFVMCCESAVQLRKTGKVTVRETTLKRLGASHSKYGVVDEHFEVAKYALLETIKEAVPEMWSPEMKVAWGQAYDHLVAAIKAEMNLSN	2
AtHb1 (Arabidopsis thaliana class 1 non-symbiotic hemoglobin / phytoglobin, His8-MBP removed) (natural protein, UniProt O24520 1-160, looked up, AtHb1, class 1 non-symbiotic hemoglobin of Arabidopsis thaliana; Heme protein; The gene primer encodes ENLYFQ directly before the first Met, the adapter primer ENLYFQG before Met; also called class 1 nsHb; source: TEV cleavage, HisTrap removal of the tag, size exclusion and/or anion exchange; not shown: His8, N-terminal, cleaved; MBP, N-terminal, cleaved) MESEGKIVFTEEQEALVVKSWSVMKKNSAELGLKLFIKIFEIAPTTKKMFSFLRDSPIPAEQNPKLKPHAMSVFVMCCESAVQLRKTGKVTVRETTLKRLGASHSKYGVVDEHFEVAKYALLETIKEAVPEMWSPEMKVAWGQAYDHLVAAIKAEMNLSN	2
His8-MBP:AtHb3 (Arabidopsis thaliana class 3 non-symbiotic, truncated hemoglobin / phytoglobin, before tag cleavage) (natural protein, UniProt Q67XG0 1-175, looked up, AtHb3, class 3 non-symbiotic (truncated, 2-on-2) hemoglobin of Arabidopsis thaliana; Heme protein; Expressed from pVP16 (Gateway) with an N-terminal 8xHis:MBP double tag and a TEV site; carboxy form oxidised to the ferric form on the column; also called His8-MBP-tagged AtHb3; 8xHis:MBP:Hb3; not shown: His8, N-terminal, kept; MBP, N-terminal, kept) MQSLQDKASVLSGVDQAEAFAIDESNLFDKLGLQTFINLSTNFYTRVYDDEEEWFQSIFSNSNKEDAIQNQYEFFVQRMGGPPLYSQRKGHPALIGRHRPFPVTHQAAERWLEHMQNALDDSVDIDQDSKIKMMKFFRHTAFFLVAGNELKNQNEKPKHKPQCACKHAANKPAEE	2
AtHb3 (Arabidopsis thaliana class 3 non-symbiotic, truncated hemoglobin / phytoglobin, His8-MBP removed) (natural protein, UniProt Q67XG0 1-175, looked up, AtHb3, class 3 non-symbiotic (truncated, 2-on-2) hemoglobin of Arabidopsis thaliana; Heme protein; The gene primer encodes ENLYFQ directly before the first Met, the adapter primer ENLYFQG before Met; also called class 3 nsHb; source: TEV cleavage, HisTrap removal of the tag, anion exchange; not shown: His8, N-terminal, cleaved; MBP, N-terminal, cleaved) MQSLQDKASVLSGVDQAEAFAIDESNLFDKLGLQTFINLSTNFYTRVYDDEEEWFQSIFSNSNKEDAIQNQYEFFVQRMGGPPLYSQRKGHPALIGRHRPFPVTHQAAERWLEHMQNALDDSVDIDQDSKIKMMKFFRHTAFFLVAGNELKNQNEKPKHKPQCACKHAANKPAEE	2
